Experimental data taken from the nanobody polyreactivity screen of Harvey et al. (2022).

Assay: yeast display, Sf9 membrane polyspecificity reagent, FACS + sequencing; frameworks hold sequencing errors
Procedure, shortened: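 After 36–48 hours of galactose induction, yeast (Saccharomyces cerevisiae BJ5465) displaying a synthetic nanobody library were stained at 4 °C for 1 hour with 10% biotinylated, detergent-solubilized Sf9 membrane reagent. Streptavidin microbeads enriched the stained cells before FACS sorting into low and high (top ~1%) gates on anti-HA and streptavidin fluorescence. Each clone's polyreactivity label reflects its gate of origin.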

Row | Sequence | polyreactivity (PSR sort gate)
1 | QVQLVESGGGLVQAGGSLRLSCAASGFTFSHYAMGWYRQAPGKERELVAAISWGGGSTYYADSVKGRFTISRDNAKNTVYLQMNSLKPEDTAVYYCARDVVYRGYYYGAFVYWGQGTQVTVSS | low polyreactivity
2 | QVQLVESGGGLVQAGGSLRLSCAASGSILSFNAMGWYRQAPGKERELVAAICRGGSTYYADSVKGRFTISRDNAKNTVYLQMNSLKPEDTAVYYCAVQLRRHVDMDYWGQGTQVTVSS | high polyreactivity
3 | QVQLVESGGGLVQAGGSLRLSCAASGSIFGDYVMGWYRQAPGKERELVAAITSATSTYYADSVKGRFTISRDNAKNTVYLQINSLKPEDTAVYYCNADATYPLWPNIWYDYDYWGQGTQVTVSS | low polyreactivity
4 | QVQLVDSGGGLVQAGGSLRLICAASGRIFYTNAMGWYRQAPGKERELVAAIDYSDSTTYYADSVKRRYTISRDNAKNTVYLQMNSLKPEDTAVYYCAAESYLYTVTFEYWGQGTQVTVSS | high polyreactivity
5 | QVQLVESGGGLVQAGGSLRLSCAASGSTFVTYAMGWYRQAPGKERELVAAIDSGGNTNYADSVKGRFTISRDNAKNTVYLQMNSLKPEDTAVYYCAVRPYELNRLDDQPGGDDYWGQGTQVTVSS | low polyreactivity
6 | QVQHVESGGGLVQAGGSLRLSCAASGGIYYQNAMGWYRQAPGKERELVAAISGRGGRTYYADSVKGRFTISRDNAKNTVYLQMNSLKPEDTAVYYCNADQATFSLYHEMDYWGQGTQVTVSS | low polyreactivity
7 | QVQLVESGGGLVQAGGSLRLSCAASGSTFIGYDMGWYRQAPGQERELVAAISYSDGTYYADSVKGRFTISRDNAKNTVYLQMNSLKPEDTAVYYCATSYRDMGSHVGYWGQGTQLTVSS | low polyreactivity
8 | QVQLVESGGGLVQAGGRLRLSCAASGRIFYNYAMGWYRQAPGKERELVAAISGSGGSTYYADSVKGRFTISRDNAKNTVYLQMNSLKPEDTAVYYCSTSGPQYYSRNFDYWGQGTQVTVSS | low polyreactivity
9 | QVQLVESGGGLVQAGGSLRLSCAASGNTSPFYAMGWYRQAPGKERELVAAISANGGSTTYADSVKGRFTISRDNAKNTVYLQMNSLKPEDTALYYCNALSLLSDGAASVDQVTFDYWGQGTQVTVSS | low polyreactivity
10 | QVQLVESGVGLVQAGGSLRLSFASSGRIFPTNAMGSYSQAPRKEREFVPAITWRGGSTYYADSVKGRFTISRDNAKNTVYLQINSLKPEDTAVYYCAATGHIVFFRAYDYGYWGQGTQVTVSS | low polyreactivity
11 | QVQLVESGGGLVQAGGSLRLSCAASGRTFIINTMGWYRQAHGKERELVAAISKNGATTNYADSVKGRFTISRDNAKNTVYFQMNSLKPEDTAVYYCNARYSGYLRLDYWGQGTQVTVSS | low polyreactivity
12 | QVQLVESGGGLVQAGGSLRLSCAASGRIFDRNAMGWYRPSPGTERELLAAIDDSGGDTSYADSVKGRFTISRDNAKNTVYLQMNSLKPEDTAVYYCNAGYADFVTYPRYYYWGQGTQVTVSS | low polyreactivity
13 | QDQLVESVGGLVQAGGSLRLSCAASGSIFIGYAMGWYRQAPGKERELVAAITSGGSTYADSVKGRFTISRDNAKNTVYLQMNSLKPEDTAVYYCAARFFLVTLDYCGQGTQVTVSS | low polyreactivity
14 | QVHLVESGGGLLLAGGSLRLTCAASGSTFYSYDKGWYRQAPGKERELVAAISWNGGSTYYEDSVKGRFTISRDNAKNTVYLPMNSLKPEDTAVYYCAALRYVHGYDYWGQGTQVSVSS | high polyreactivity
15 | QVQLVESGGGLVQAGGSLRLSCAASGSTFAKNAMGWYRQAPGKERELVAAITYSGGSTYYADSVKGRFTISRDYAKNTVYLEMYSLKPEYTAVYYCAADVWWSYFRYDYWGQGTQVTVSW | low polyreactivity
16 | QVQLVESGGGLVQAGGSLRLSCAASGRTFWYNAMGWYRQAPGKERELVATISPGGRTYYADSVKGRFTISRDNAKNTVYLQMNSVKPEDTAVYYCDASSSFSRYGVVPYYYWGQGTQVTVSS | high polyreactivity
